# Columns and labels:
# Type in all cases: in vivo, BALB/cA bare mouse
# Design in all cases: TV d 0 / TV d 21: unit not given here
# Conditions in all cases: for RTV: RTV=Vt/V0; for T/C (%): TRTV/CRTV×100; for Weight (g) Final: final body weight; for Weight (g) First: first (baseline) body weight; for TV d 0: d 0, day of first administration
# [1] = tested on: human colon carcinoma HCT-116; assay: Transplanted tumor of human colon carcinoma HCT-116 in bare mouse
# Description: (§1) Animal Resource, Line and Strain: BALB/cA bare mouse, provided by Experimental Animal Center, Chinese Academy of Sciences, Shanghai, China.
# (§2) Number of animal in each group: 10 mice for negative control group and 5 mice for treating group
# (§3) Transplanted tumor of human colon carcinoma HCT-116 in bare mouse was established by inoculating human colon carcinoma HCT-116 cell strain into hypoderm of bare mouse, with a inoculation concentration of 1-3×10^6. After establishing the transplanted tumor, it was passaged in bare mouse for three generations prior to use.
# (§4) The eugonic tumor tissue was cut into about 1.5 mm^3. It was inoculated into hypodermis in right armpit of bare mouse under aseptic condition. The diameter of the transplanted tumor of the bare mouse was measured by vernier caliper. After the tumor grew to 100-300 mm^3, the mice were grouped randomly. The effect of reagents used for inhibiting tumor was observed dynamically through the method of measuring the diameter of tumor. The diameter of tumor was measured 3 times per week, while measuring the weight of mice. With respect to the mice in an administration group, the mice were administrated by intravenous injection 6 times per week, with respect to the mice in a positive control group, the mice were administrated by intravenous injection 2 times per week; with respect to the mice in a negative control group, the mice were administrated by same amount of physiological saline at the same time.
# (§5) The tumor volume (TV) was calculated as follows:
# (§6) in which a and b represent length and width, respectively. The relative tumor volume (RTV) was calculated depending on the measured results: RTV=Vt/V0, in which V0 represents the tumor volume measured at the first administration (d0), and Vt represents the tumor volume measured at each measurement. The factor for estimating the effect against tumor is the relative tumor growth T/C (%) as follows:
# (§7) TRTV: RTV for treating group; CRTV: RTV for negative control group.
# 100 mg of p43 protein, available from Sine Laboratory in Shanghai, China, was dissolved in physiological saline to form a solution of 1 mg/ml.
# (§8) The solution was administrated to bare mouse by intravenous injection in 2.5 mg p43 protein/kg weight, 5 mg p43 protein/kg weight, and 10 mg p43 protein/kg weight.
# [2] = tested on: human gastric adenocarcinoma SGC-7901; assay: Transplanted tumor of human gastric adenocarcinoma SGC-7901 in bare mouse
# Description: as §1
# Bare mouse transplanted with human gastric adenocarcinoma […] was established by subcutaneously inoculating human gastric adenocarcinoma SGC-7901 cell strain into bare mouse, with a inoculation concentration of 1-3×10^6. After establishing the transplanted tumor, it was passaged in bare mouse for three generations prior to use.
# as §4, with “dynamically through measuring the” for “dynamically through the method of measuring the”, “times per week: with respect” for “times per week, with respect”
# as §5
# as §6, with “based” for “depending”, “proliferation” for “growth”
# as §7
# 100 mg of p43 protein, obtained from Sine Laboratory in Shanghai, China, was dissolved in physiological saline to form a solution of 1 mg/ml.
# as §8
# [3] = tested on: human nasopharyngeal carcinoma CNE-1; assay: Transplanted tumor of human nasopharyngeal carcinoma CNE-1 in bare mouse
# Description: as §1, §2
# as §3, with “nasopharyngeal” for “colon”, “CNE-1” for “HCT-116”
# as §4, with “reagents used fro inhibiting tumor” for “reagents used for inhibiting tumor”, “times per week; with respect” for “times per week, with respect”
# as §5, §6, §7
# 100 mg of p43 protein, available from Sine Laboratory in Shanghai, China, was dissolved in physiological saline to form a solution of 1 mg/ml. […]
# [4] = 2.5 mg/kg intravenous injection 6 times per week
# [5] = 2.5 mg/kg intravenous injection
# [6] = 5 mg/kg intravenous injection 6 times per week
# [7] = 10 mg/kg intravenous injection 6 times per week
molecule,measurement,setting,value
"P43: accessory factor of tRNA synthetase of mammals; single-chain protein of 312 amino acids; obtained from Sine Laboratory, Shanghai (protein, UniProt Q12904 2-312, looked up) Aminoacyl tRNA synthase …: ANNDAVLKRLEQKGAEADQIIEYLKQQVSLLKEKAILQATLREEKKLRVENAKLKKEIEELKQELIQAEIQNGVKQIPFPSGTPLHANSMVSENVIQSTAVTTVSSGTKEQIKGGTGDEKKAKEKIEKKGEKKEKKQQSIAGSADSKPIDVSRLDLRIGCIITARKHPDADSLYVEEVDVGEIAPRTVVSGLVNHVPLEQMQNRMVILLCNLKPAKMRGVLSQAMVMCASSPEKIEILAPPNGSVPGDRITFDAFPGEPDKELNPKKKIWEQIQPDLHTNDECVATYKGVPFEVKGKGVCRAQTMSNSGIK",RTV,[1]; [4],5.01 ± 0.92
same,T/C (%),[1]; [4],84.5%
same,TV d 21,[1]; [4],822 ± 145
same,Weight (g) Final,[1]; [4],24.1 ± 1.5 g
same,Weight (g) First,[1]; [4],20.7 g
same,TV d 0,[1]; [5],164 ± 48
same,RTV,[1]; [6],4.51 ± 0.75
same,T/C (%),[1]; [6],76.0%
same,TV d 21,[1]; [6],703 ± 189
same,Weight (g) Final,[1]; [6],23.9 ± 2.2 g
same,Weight (g) First,[1]; [6],21.3 g
same,TV d 0,[1]; 5 mg/kg intravenous injection,156 ± 39
same,RTV,[1]; [7],4.73 ± 1.01
same,T/C (%),[1]; [7],79.7%
same,T/C (%),"[1]; 10 mg/kg intravenous injection 6 times per week, listed as p43",79.79%
same,TV d 21,[1]; [7],761 ± 211
same,Weight (g) Final,[1]; [7],23.5 ± 2.1 g
same,Weight (g) First,[1]; [7],20.9 g
same,TV d 0,[1]; 10 mg/kg intravenous injection,161 ± 52
same,side effect,"[1]; HCT-116 bearing bare mouse, 2.5, 5 and 10 mg/kg intravenous injection",without any obvious side effect
same,inhibition on growth of transplanted tumor,"[1]; HCT-116 in bare mouse, 2.5, 5 and 10 mg/kg intravenous injection",non-significant inhibition
same,RTV,[2]; [4],17.14 ± 7.25
same,T/C (%),[2]; [4],81.7%
same,TV d 21,[2]; [4],2400 ± 360
same,Weight (g) Final,[2]; [4],26.7 ± 1.7 g
same,Weight (g) First,[2]; [4],20.3 ± 0.9 g
same,TV d 0,[2]; [5],140 ± 73
same,RTV,[2]; [6],11.37 ± 6.3
same,T/C (%),[2]; [6],54.2%
same,TV d 21,[2]; [6],1648 ± 102
same,Weight (g) Final,[2]; [6],25.1 ± 1.9 g
same,Weight (g) First,[2]; [6],20.5 ± 0.7 g
same,TV d 0,[2]; 5 mg/kg intravenous injection,146 ± 72
same,RTV,[2]; [7],12.99 ± 5.14
same,T/C (%),[2]; [7],61.9%
same,TV d 21,[2]; [7],1715 ± 168
same,Weight (g) Final,[2]; [7],25.4 ± 2.8 g
same,Weight (g) First,[2]; [7],20.7 ± 0.6 g
same,TV d 0,[2]; 10 mg/kg intravenous injection,132 ± 34
same,side effect,"[2]; SGC-7901 bearing bare mouse, 2.5, 5 and 10 mg/kg intravenous injection",without any obvious side effect
same,inhibition on growth of transplanted tumor,"[2]; SGC-7901 in bare mouse, 2.5, 5 and 10 mg/kg intravenous injection",significant inhibition
same,RTV,[3]; [4],13.43 ± 5.64
same,T/C (%),[3]; [4],88.9%
same,TV d 21,[3]; [4],1921 ± 201
same,Weight (g) Final,[3]; [4],24.6 ± 2.4 g
same,Weight (g) First,[3]; [4],20.5 ± 1.3 g
same,TV d 0,[3]; [5],143 ± 70
same,RTV,[3]; [6],12.75 ± 5.12
same,T/C (%),[3]; [6],84.4%
same,TV d 21,[3]; [6],1708 ± 154
same,Weight (g) Final,[3]; [6],23.1 ± 1.8 g
same,Weight (g) First,[3]; [6],19.6 ± 0.8 g
same,TV d 0,[3]; 5 mg/kg intravenous injection,134 ± 48
same,RTV,[3]; [7],12.63 ± 4.88
same,T/C (%),[3]; [7],83.6%
same,TV d 21,[3]; [7],1856 ± 173
same,Weight (g) Final,[3]; [7],22.9 ± 2.3 g
same,Weight (g) First,[3]; [7],19.8 ± 1.1 g
same,TV d 0,[3]; 10 mg/kg intravenous injection,147 ± 63
same,side effect,"[3]; CNE-1 bearing bare mouse, 2.5, 5 and 10 mg/kg intravenous injection",without any obvious side effect
same,inhibition on growth of transplanted tumor,"[3]; CNE-1 in bare mouse, 2.5, 5 and 10 mg/kg intravenous injection",non-significant inhibition

# — patent US20090324573A1, “Pharmaceutical Composition Comprising P43 Protein for the Treatment of Gastric Adenocarcinoma” (priority 2006, published 2009)
